This note sets out measurements from the Immune Epitope Database (IEDB).

The first experiment deals with HLA-A*02:03. Description: IEDB peptide-MHC binding, purified MHC/competitive/radioactivity; filed as Kd, often an IC50 or EC50 that approximates it; ≥ and ≤ were set here for values at or beyond the usual limits of such assays. The following applies: source organism: Lymphocytic choriomeningitis virus (strain Armstrong).
For FSLGAAVKA, the Kd turned out to be 13300 nM.

The experiment is the same for the next values; noted with them: source organism: Mammarenavirus tacaribeense.
Turning to MNNVVQALT, the Kd is not below 21500 nM.

The experiment is the same for the next values; noted with them: source organism: Mammarenavirus whitewaterense.
Take LNASYITPYV: the Kd was determined as 1070 nM.

Staying with this experiment, now noted: source organism: SARS coronavirus Tor2.
Take MVMCGGSLYV: the Kd was 10.3 nM.

For MLIIFWFSL, the Kd was 13000 nM.

Turning to FLCLFLLPSL, the Kd was 2.86 nM.

As to FLNRFTTTL, the Kd stood at 1.02 nM.

The experiment is the same for the next values; noted with them: source organism: Vaccinia virus Copenhagen.
With LIAGIILLIL, the Kd worked out at 680 nM.

The same experiment, now with this note: source organism: Vaccinia virus WR.
Regarding ALWDSNFFT, the Kd is not below 28200 nM.

As to NITHTNITTL, the Kd was found to be 5020 nM.

On to ELVMDKNHAI, for which the Kd is not below 70400 nM.

Turning to LAYYNSCMLT, the Kd turned out to be 15.9 nM.

In the case of ETIQKDINI, the Kd was not below 50800 nM.

For the sequence GLYIPGTSV, the Kd turned out to be 16.6 nM.

Consider NVDVGCLLT, for which the Kd was determined as 14000 nM.

With TVGMSIVCIV, the Kd was determined as 468 nM.

Turning to VMDTLNGIMM, the Kd is 5160 nM.

Consider SLSNLDFRL, for which the Kd was determined as 1760 nM.

Turning to SIVCIVAAV, the Kd came to 2.82 nM.

On to ALKNSQAEL, for which the Kd amounted to 16.8 nM.

DIKYISRDEL: the Kd is 9570 nM.

As for NILGGVLHT, the Kd was not below 20600 nM.

In the case of EMVEYLENQL, the Kd was found to be 209 nM.

Turning to KIQLFSDFTI, the Kd was not below 70400 nM.

Take KINNNRIVAM: the Kd worked out at 1300 nM.

For the sequence NIYRLFTRCA, the Kd was found to be 138 nM.

Consider IMRNFLRSIA, for which the Kd was 122 nM.

Take PTIEDDKIVT: the Kd is not below 20600 nM.

PMSRLFMDEI: the Kd came to 726 nM.

Turning to PLHIVCSKTV, the Kd was 5270 nM.

For the sequence FVATFRDMLL, the Kd came to 17.6 nM.

As for EIDVSEVKT, the Kd is not below 78100 nM.

DIIDLLLPST: the Kd worked out at 6590 nM.

With GIKGLDERFV, the Kd came to 844 nM.

For the sequence RIITILQDIV, the Kd came out at 209 nM.

SVDIETAIRA: the Kd stood at 7620 nM.

Take SILNNPVDT: the Kd is not below 30600 nM.

Turning to DITNILGGVL, the Kd came out at 3680 nM.

For the sequence ALTDVEKRIL, the Kd was determined as 127 nM.

On to GVSGLYIPGT, for which the Kd turned out to be 2150 nM.

VIIMAINVFT: the Kd worked out at 820 nM.

With QQNNSFIIST, the Kd is 5040 nM.

On to ELEKCTSEI, for which the Kd is not below 56000 nM.

With AILHNIYRL, the Kd came to 814 nM.

Regarding TIAHINTLI, the Kd was found to be 20 nM.

For the sequence NVIGLIVIL, the dissociation constant Kd came to 2400 nM.

As to VIPFDDIVRT, the Kd was not below 50300 nM.

Take LTNAISSRV: the Kd stood at 18.6 nM.

On to EMQLKIDKLT, for which the Kd was found to be 6820 nM.

With DVQRTRCKYV, the Kd was 6470 nM.

For YVVIVENDNV, the Kd turned out to be 11000 nM.

For NTISGNIYSA, the Kd was 314 nM.

Regarding YVSPTEMVDV, the Kd is 49.8 nM.

QIMECSRML: the Kd worked out at 1380 nM.

A further experiment has as its target HLA-A*02:06. The experiment is described as above. The following applies: source organism: Lymphocytic choriomeningitis virus (strain Armstrong).
Consider FSLGAAVKA, for which the Kd came out at 327 nM.

Staying with this experiment, now noted: source organism: Mammarenavirus tacaribeense.
With MNNVVQALT, the Kd is not below 77000 nM.

Still in this experiment, the particulars now being: source organism: Mammarenavirus whitewaterense.
In the case of LNASYITPYV, the Kd amounted to 37.7 nM.

The experiment is the same for the next values; noted with them: source organism: SARS coronavirus Tor2.
For the sequence MVMCGGSLYV, the Kd was 13.2 nM.

In the case of MLIIFWFSL, the Kd turned out to be 490 nM.

On to FLCLFLLPSL, for which the Kd was 0.373 nM.

Take FLNRFTTTL: the Kd is 58.1 nM.

The same experiment, now with this note: source organism: Vaccinia virus Copenhagen.
As for LIAGIILLIL, the Kd was determined as 345 nM.

The same experiment, now with this note: source organism: Vaccinia virus WR.
As for ALWDSNFFT, the Kd was not below 23100 nM.

Take NITHTNITTL: the Kd came to 8170 nM.

As to ELVMDKNHAI, the dissociation constant Kd is not below 69800 nM.

LAYYNSCMLT: the Kd came to 86.2 nM.

With ETIQKDINI, the Kd was not below 34900 nM.

For the sequence GLYIPGTSV, the Kd came to 1740 nM.

As to NVDVGCLLT, the Kd is not below 64500 nM.

On to TVGMSIVCIV, for which the Kd was 200 nM.

On to VMDTLNGIMM, for which the Kd worked out at 403 nM.

SLSNLDFRL: the Kd was 1380 nM.

Turning to SIVCIVAAV, the Kd amounted to 3.54 nM.

Regarding ALKNSQAEL, the Kd is not below 32900 nM.

Turning to DIKYISRDEL, the Kd was determined as 2060 nM.

Take NILGGVLHT: the Kd is 9960 nM.

On to EMVEYLENQL, for which the Kd amounted to 420 nM.

For the sequence KIQLFSDFTI, the Kd is not below 69800 nM.

Consider KINNNRIVAM, for which the Kd was determined as 3190 nM.

As to NIYRLFTRCA, the Kd stood at 22.9 nM.

As to IMRNFLRSIA, the Kd is 544 nM.

With PTIEDDKIVT, the Kd was not below 69800 nM.

Take PMSRLFMDEI: the Kd was 4370 nM.

PLHIVCSKTV: the Kd is not below 27000 nM.

As for FVATFRDMLL, the Kd was determined as 4.36 nM.

As to EIDVSEVKT, the Kd is not below 77100 nM.

DIIDLLLPST: the Kd stood at 284 nM.

Take GIKGLDERFV: the Kd was found to be 940 nM.

For RIITILQDIV, the Kd amounted to 94.8 nM.

For SVDIETAIRA, the Kd amounted to 1030 nM.

With SILNNPVDT, the Kd worked out at 14200 nM.

With DITNILGGVL, the Kd is 18900 nM.

In the case of ALTDVEKRIL, the Kd was 934 nM.

Turning to GVSGLYIPGT, the Kd was determined as 31.7 nM.

As to VIIMAINVFT, the Kd turned out to be 674 nM.
